B1: ZMYM5 (protein, UniProt Q9UJ78 1-669, looked up)
chain: MEKCSVGGLELTEQTPALLGNMAMATSLMDIGDSFGHPACPLVSRSRNSPVEDDDDDDDVVFIESIQPPSISAPAIADQRNFIFASSKNEKPQGNYSVIPPSSRDLASQKGNISETIVIDDEEDIETNGGAEKKSSCFIEWGLPGTKNKTNDLDFSTSSLSRSKTKTGVRPFNPGRMNVAGDLFQNGEFATHHSPDSWISQSASFPSNQKQPGVDSLSPVALLRKQNFQPTAQQQLTKPAKITCANCKKPLQKGQTAYQRKGSAHLFCSTTCLSSFSHKRTQNTRSIICKKDASTKKANVILPVESSKSFQEFYSTSCLSPCENNWNLKKGVFNKSRCTICSKLAEIRHEVSVNNVTHKLCSNHCFNKYRLANGLIMNCCEHCGEYMPSKSTGNNILVIGGQQKRFCCQSCINEYKQMMETKSKKLTASENRKRNAFREENEKQLYGSSNTLLKKIEGIPEKKEKTSQLQLSVECGTDTLLIQENVNLPPSSTSTIADTFQEQLEEKNFEDSIVPVVLSADPGTWPRILNIKQRDTLVENVPPQVRNFNFPKDNTGRKFSETYYTRILPNGEKTTRSWLLYSTSKDSVFCLYCKLFGEGKNQLKNENGCKDWQHLSHILSKHEESEMHVNNSVKYSKLKSDLKKNKAIDAAEHRLYENEKNDGVLLLYT
B2: PIAS3 (enzyme, UniProt Q9Y6X2 1-628, looked up)
chain: MAELGELKHMVMSFRVSELQVLLGFAGRNKSGRKHELLAKALHLLKSSCAPSVQMKIKELYRRRFPRKTLGPSDLSLLSLPPGTSPVGSPGPLAPIPPTLLAPGTLLGPKREVDMHPPLPQPVHPDVTMKPLPFYEVYGELIRPTTLASTSSQRFEEAHFTFALTPQQVQQILTSREVLPGAKCDYTIQVQLRFCLCETSCPQEDYFPPNLFVKVNGKLCPLPGYLPPTKNGAEPKRPSRPINITPLARLSATVPNTIVVNWSSEFGRNYSLSVYLVRQLTAGTLLQKLRAKGIRNPDHSRALIKEKLTADPDSEVATTSLRVSLMCPLGKMRLTVPCRALTCAHLQSFDAALYLQMNEKKPTWTCPVCDKKAPYESLIIDGLFMEILSSCSDCDEIQFMEDGSWCPMKPKKEASEVCPPPGYGLDGLQYSPVQGGDPSENKKKVEVIDLTIESSSDEEDLPPTKKHCSVTSAAIPALPGSKGVLTSGHQPSSVLRSPAMGTLGGDFLSSLPLHEYPPAFPLGADIQGLDLFSFLQTESQHYGPSVITSLDEQDALGHFFQYRGTPSHFLGPLAPTLGSSHCSATPAPPPGRVSSIVAPGGALREGHGGPLPSGPSLTGCRSDIISLD
B3: ZNF198 (protein, UniProt Q9UBW7 1-1377, looked up)
chain: MDTSSVGGLELTDQTPVLLGSTAMATSLTNVGNSFSGPANPLVSRSNKFQNSSVEDDDDVVFIEPVQPPPPSVPVVADQRTITFTSSKNEELQGNDSKITPSSKELASQKGSVSETIVIDDEEDMETNQGQEKNSSNFIERRPPETKNRTNDVDFSTSSFSRSKVNAGMGNSGITTEPDSEIQIANVTTLETGVSSVNDGQLENTDGRDMNLMITHVTSLQNTNLGDVSNGLQSSNFGVNIQTYTPSLTSQTKTGVGPFNPGRMNVAGDVFQNGESATHHNPDSWISQSASFPRNQKQPGVDSLSPVASLPKQIFQPSVQQQPTKPVKVTCANCKKPLQKGQTAYQRKGSAHLFCSTTCLSSFSHKPAPKKLCVMCKKDITTMKGTIVAQVDSSESFQEFCSTSCLSLYEDKQNPTKGALNKSRCTICGKLTEIRHEVSFKNMTHKLCSDHCFNRYRMANGLIMNCCEQCGEYLPSKGAGNNVLVIDGQQKRFCCQSCVSEYKQVGSHPSFLKEVRDHMQDSFLMQPEKYGKLTTCTGCRTQCRFFDMTQCIGPNGYMEPYCSTACMNSHKTKYAKSQSLGIICHFCKRNSLPQYQATMPDGKLYNFCNSSCVAKFQALSMQSSPNGQFVAPSDIQLKCNYCKNSFCSKPEILEWENKVHQFCSKTCSDDYKKLHCIVTYCEYCQEEKTLHETVNFSGVKRPFCSEGCKLLYKQDFARRLGLRCVTCNYCSQLCKKGATKELDGVVRDFCSEDCCKKFQDWYYKAARCDCCKSQGTLKERVQWRGEMKHFCDQHCLLRFYCQQNEPNMTTQKGPENLHYDQGCQTSRTKMTGSAPPPSPTPNKEMKNKAVLCKPLTMTKATYCKPHMQTKSCQTDDTWRTEYVPVPIPVPVYIPVPMHMYSQNIPVPTTVPVPVPVPVFLPAPLDSSEKIPAAIEELKSKVSSDALDTELLTMTDMMSEDEGKTETTNINSVIIETDIIGSDLLKNSDPETQSSMPDVPYEPDLDIEIDFPRAAEELDMENEFLLPPVFGEEYEEQPRPRSKKKGAKRKAVSGYQSHDDSSDNSECSFPFKYTYGVNAWKHWVKTRQLDEDLLVLDELKSSKSVKLKEDLLSHTTAELNYGLAHFVNEIRRPNGENYAPDSIYYLCLGIQEYLCGSNRKDNIFIDPGYQTFEQELNKILRSWQPSILPDGSIFSRVEEDYLWRIKQLGSHSPVALLNTLFYFNTKYFGLKTVEQHLRLSFGTVFRHWKKNPLTMENKACLRYQVSSLCGTDNEDKITTGKRKHEDDEPVFEQIENTANPSRCPVKMFECYLSKSPQNLNQRMDVFYLQPECSSSTDSPVWYTSTSLDRNTLENMLVRVLLVKDIYDKDNYELDEDTD
B4: ZBTB16 (protein, UniProt Q05516 1-673, looked up)
chain: MDLTKMGMIQLQNPSHPTGLLCKANQMRLAGTLCDVVIMVDSQEFHAHRTVLACTSKMFEILFHRNSQHYTLDFLSPKTFQQILEYAYTATLQAKAEDLDDLLYAAEILEIEYLEEQCLKMLETIQASDDNDTEATMADGGAEEEEDRKARYLKNIFISKHSSEESGYASVAGQSLPGPMVDQSPSVSTSFGLSAMSPTKAAVDSLMTIGQSLLQGTLQPPAGPEEPTLAGGGRHPGVAEVKTEMMQVDEVPSQDSPGAAESSISGGMGDKVEERGKEGPGTPTRSSVITSARELHYGREESAEQVPPPAEAGQAPTGRPEHPAPPPEKHLGIYSVLPNHKADAVLSMPSSVTSGLHVQPALAVSMDFSTYGGLLPQGFIQRELFSKLGELAVGMKSESRTIGEQCSVCGVELPDNEAVEQHRKLHSGMKTYGCELCGKRFLDSLRLRMHLLAHSAGAKAFVCDQCGAQFSKEDALETHRQTHTGTDMAVFCLLCGKRFQAQSALQQHMEVHAGVRSYICSECNRTFPSHTALKRHLRSHTGDHPYECEFCGSCFRDESTLKSHKRIHTGEKPYECNGCGKKFSLKHQLETHYRVHTGEKPFECKLCHQRSRDYSAMIKHLRTHNGASPYQCTICTEYCPSLSSMQKHMKGHKPEEIPPDWRIEKTYLYLCYV
B5: RNF111 (enzyme, UniProt Q6ZNA4 1-994, looked up)
chain: MSQWTPEYNELYTLKVDMKSEIPSDAPKTQESLKGILLHPEPIGAAKSFPAGVEMINSKVGNEFSHLCDDSQKQEKEMNGNQQEQEKSLVVRKKRKSQQAGPSYVQNCVKENQGILGLRQHLGTPSDEDNDSSFSDCLSSPSSSLHFGDSDTVTSDEDKEVSVRHSQTILNAKSRSHSARSHKWPRTETESVSGLLMKRPCLHGSSLRRLPCRKRFVKNNSSQRTQKQKERILMQRKKREVLARRKYALLPSSSSSSENDLSSESSSSSSTEGEEDLFVSASENHQNNPAVPSGSIDEDVVVIEASSTPQVTANEEINVTSTDSEVEIVTVGESYRSRSTLGHSRSHWSQGSSSHASRPQEPRNRSRISTVIQPLRQNAAEVVDLTVDEDEPTVVPTTSARMESQATSASINNSNPSTSEQASDTASAVTSSQPSTVSETSATLTSNSTTGTSIGDDSRRTTSSAVTETGPPAMPRLPSCCPQHSPCGGSSQNHHALGHPHTSCFQQHGHHFQHHHHHHHTPHPAVPVSPSFSDPACPVERPPQVQAPCGANSSSGTSYHEQQALPVDLSNSGIRSHGSGSFHGASAFDPCCPVSSSRAAIFGHQAAAAAPSQPLSSIDGYGSSMVAQPQPQPPPQPSLSSCRHYMPPPYASLTRPLHHQASACPHSHGNPPPQTQPPPQVDYVIPHPVHAFHSQISSHATSHPVAPPPPTHLASTAAPIPQHLPPTHQPISHHIPATAPPAQRLHPHEVMQRMEVQRRRMMQHPTRAHERPPPHPHRMHPNYGHGHHIHVPQTMSSHPRQAPERSAWELGIEAGVTAATYTPGALHPHLAHYHAPPRLHHLQLGALPLMVPDMAGYPHIRYISSGLDGTSFRGPFRGNFEELIHLEERLGNVNRGASQGTIERCTYPHKYKKVTTDWFSQRKLHCKQDGEEGTEEDTEEKCTICLSILEEGEDVRRLPCMHLFHQVCVDQWLITNKKCPICRVDIEAQLPSES
B6: C18orf25 (protein, UniProt Q96B23 1-404, looked up)
chain: MKMEEAVGKVEELIESEAPPKASEQETAKEEDGSVELESQVQKDGVADSTVISSMPCLLMELRRDSSESQLASTESDKPTTGRVYESDSSNHCMLSPSSSGHLADSDTLSSAEENEPSQAETAVEGDPSGVSGATVGRKSRRSRSESETSTMAAKKNRQSSDKQNGRVAKVKGHRSQKHKERIRLLRQKREAAARKKYNLLQDSSTSDSDLTCDSSTSSSDDDEEVSGSSKTITAEIPDGPPVVAHYDMSDTNSDPEVVNVDNLLAAAVVQEHSNSVGGQDTGATWRTSGLLEELNAEAGHLDPGFLASDKTSAGNAPLNEEINIASSDSEVEIVGVQEHARCVHPRGGVIQSVSSWKHGSGTQYVSTRQTQSWTAVTPQQTWASPAEVVDLTLDEDSRRKYLL

What follows are molecules tested on E4bp4 (NFIL3), wild type (assay: cell_activity). Settings: 3T3 cells, 48 h; transcriptional repression.
“pGL3-E4bp4-CS reporter with three E4bp4 consensus binding sites” was tested, and the activity (% decrease in luciferase) was 50.

The molecules below were run against E4bp4 (assay: yeast-two-hybrid screen, E4bp4 as bait). Settings: not given.
In the case of CHD1 (from UniProt O14646 1-1710), the Positive clones is reported as 1 clones.
With DSP (from UniProt P15924 1-2871) the Positive clones was 2 clones.
With FLJ13057 the Positive clones was 5 clones.
For FLJ544447, the Positive clones was 1 clones.
For FLNA (from UniProt P21333 2-2647), the Positive clones was 1 clones.
“HIPK1 (from UniProt Q86Z02 1-1210) (enzyme)” showed a Positive clones of 1 clones.
With “HIPK3 (from UniProt Q9H422 1-1215) (enzyme)” the Positive clones was 5 clones.
PIAS1 (from UniProt O75925 2-651) showed a Positive clones of 20 clones.
In the case of “RANBP2 (from UniProt P49792 1-3224) (enzyme)”, the Positive clones is reported as 1 clones.
For “SETX (from UniProt Q7Z333 1-2677) (enzyme)”, the Positive clones was 2 clones.
With SNRP70 (from UniProt P08621 2-437) the Positive clones was 2 clones.
For “SORL1 (from UniProt Q92673 82-2214) (receptor)”, the Positive clones was 1 clones.
Molecule “TLK2 (from UniProt Q86UE8 1-772) (enzyme)” has a Positive clones of 2 clones.
With “U5-200KD (from UniProt O75643 1-2136) (enzyme)” the Positive clones was 1 clones.
With ZNF237 the Positive clones was 5 clones.
In the case of B1, the Positive clones is reported as 5 clones.
B2 was tested, and the Positive clones was 2 clones.
B3 showed a Positive clones of 5 clones.
Molecule B4 has a Positive clones of 1 clones.
Work on B5 yielded a Positive clones of 1 clones.
For B6, the Positive clones was 1 clones.

From patent publication US20230002732A1
